Reference: patent US20240392023A1 (ABCLON, published 2024)

T1: CD30-His (Sino Biological, 10777-H08H) (UniProt P28908 19-379)
T1 construct: Bought protein; also called CD30-His protein; CD30 protein; not shown: His tag
T1 sequence (looked up): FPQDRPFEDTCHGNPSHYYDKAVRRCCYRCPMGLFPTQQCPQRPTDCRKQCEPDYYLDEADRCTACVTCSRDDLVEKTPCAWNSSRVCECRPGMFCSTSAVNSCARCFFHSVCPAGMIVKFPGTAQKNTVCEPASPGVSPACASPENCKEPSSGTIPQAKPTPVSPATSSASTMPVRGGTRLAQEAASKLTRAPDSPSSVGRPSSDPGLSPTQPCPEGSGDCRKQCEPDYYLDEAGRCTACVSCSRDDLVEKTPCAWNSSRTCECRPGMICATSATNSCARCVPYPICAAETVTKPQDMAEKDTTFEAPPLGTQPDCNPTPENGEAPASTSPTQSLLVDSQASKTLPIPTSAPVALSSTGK


target: T1, CD30-His (Sino Biological, 10777-H08H); assay: ELISA, scFv-Fc titrated on plate coated with 1 µg/mL CD30-His
Experimental: For ELISA, the eleven purified anti-CD30 scFv-Fc forms and the positive control HRS scFV-Fc were 1/3 diluted for 10 points starting from 10 μg/mL in a plate coated with 1 μg/mL CD30-His protein. After treatment with a secondary antibody (anti-hIgG-Fc-HRP (Invitrogen, H10007)), a color was developed with TMB. OD₄₅₀ values were read using an ELISA reader, and EC₅₀ values were measured by means of Graph prism (FIG. 1, Table 3).

EC50 [µg/mL] | Binder
0.021 | T1-36 anti-CD30 scFv-Fc (Fc fusion, scFv-Fc-conjugated form (Zb-Fc); also called Zb-Fc form; not shown: Fc of the scFv-Fc (Zb-Fc) form and its junction) scFv: EVQLLESGGGLVQPGGSLRLSCAASGFTFSYYYMSWVRQAPGKGLEWVSYIGGGGSGTYYADSVKGRFTISRDNSKNTLYLQMNSLRAEDTAVYYCARGPYYGYFDYWGQGTLVTVSSGGGGSGGGGSGGGGSQSVLTQPPSASGTPGQRVTISCSGSSSNIGSNYVYWYQQLPGTAPKLLIYRNNQRPSGVPDRFSGSKSGTSASLAISGLRSEDEADYYCAAYPSYDSYVFGGGTKLTVLG
0.023 | T1-23 anti-CD30 scFv-Fc (Fc fusion, scFv-Fc-conjugated form (Zb-Fc); also called Zb-Fc form; not shown: Fc of the scFv-Fc (Zb-Fc) form and its junction) scFv: EVQLLESGGGLVQPGGSLRLSCAASGFTFSSYSMSWVRQAPGKGLEWVSGIGYPYYTYYADSVKGRFTISRDNSKNTLYLQMNSLRAEDTAVYYCARYYYDYGFDYWGQGTLVTVSSGGGGSGGGGSGGGGSQSVLTQPPSASGTPGQRVTISCSGSSSNIGSNYVYWYQQLPGTAPKLLIYRNNQRPSGVPDRFSGSKSGTSASLAISGLRSEDEADYYCAAYRSYDYVFGGGTKLTVLG
0.031 | T1-10 anti-CD30 scFv-Fc (Fc fusion, scFv-Fc-conjugated form (Zb-Fc); also called Zb-Fc form; not shown: Fc of the scFv-Fc (Zb-Fc) form and its junction) scFv: EVQLLESGGGLVQPGGSLRLSCAASGFTFSSYGMSWVRQAPGKGLEWVSYISGGSYYTYYADSVKGRFTISRDNSKNTLYLQMNSLRAEDTAVYYCARYGYGYYDGSFDYWGQGTLVTVSSGGGGSGGGGSGGGGSQSVLTQPPSASGTPGQRVTISCSGSSSNIGSNYVYWYQQLPGTAPKLLIYRNNQRPSGVPDRFSGSKSGTSASLAISGLRSEDEADYYCAADGPYNYVFGGGTKLTVLG
0.06 | T1-2 anti-CD30 scFv-Fc (Fc fusion, Cloned in an scFv-Fc-conjugated form (Zb-Fc); detected with anti-human IgG Fc; also called Zb-Fc form; not shown: Fc of the scFv-Fc (Zb-Fc) form and any junction to it) scFv: EVQLLESGGGLVQPGGSLRLSCAASGFTFSGYGMSWVRQAPGKGLEWVSYISGYSYYTYYADSVKGRFTFSRDNSKNTLYLQMNSLRAEDTAVYYCARYDGNGFDYWGQGTLVTVSSGGGGSGGGGSGGGGSQSVLTQPPSASGTPGQRVTISCSGSSSNIGSNYVYWYQQLPGTAPKLLIYRNNQRPSGVPDRFSGSKSGTSASLAISGLRSEDEADYYCAADSSDDSYVFGGGTKLTVLG

The next lines start with the binder.

Binder | EC50 [µg/mL]
T1-117 anti-CD30 scFv-Fc (Fc fusion, scFv-Fc-conjugated form (Zb-Fc); also called Zb-Fc form; not shown: Fc of the scFv-Fc (Zb-Fc) form and its junction) scFv: EVQLLESGGGLVQPGGSLRLSCAASGFTFSYYGMSWVRQAPGKGLEWVSYISGYSSYTYYADSVKGRFTISRDNSKNTLYLQMNSLRAEDTAVYYCARYNDSGSFDYWGQGTLVTVSSGGGGSGGGGSGGGGSQSVLTQPPSASGTPGQRVTISCSGSSSNIGSNYVYWYQQLPGTAPKLLIYRNNQRPSGVPDRFSGSKSGTSASLAISGLRSEDEADYYCAADAGNRYVFGGGTKLTVLG | 0.157
T1-9 anti-CD30 scFv-Fc (Fc fusion, scFv-Fc-conjugated form (Zb-Fc); also called Zb-Fc form; not shown: Fc of the scFv-Fc (Zb-Fc) form and its junction) scFv: EVQLLESGGGLVQPGGSLRLSCAASGFTFSYYGMSWVRQAPGKGLEWVSGIGSYSSYTYYADSVKGRFTISRDNSKNTLYLQMNSLRAEDTAVYYCARYASSPDAYFDYWGQGTLVTVSSGGGGSGGGGSGGGGSQSVLTQPPSASGTPGQRVTISCSGSSSNIGSNYVYWYQQLPGTAPKLLIYRNNQRPSGVPGRFSGSKSGTSASLAISGLRSEDEADYYCAAYYNYNYVFGGGTKLTVLG | 0.026
T1-8 anti-CD30 scFv-Fc (Fc fusion, scFv-Fc-conjugated form (Zb-Fc); also called Zb-Fc form; not shown: Human Fc of the scFv-Fc (Zb-Fc) form and its junction to the scFv) scFv: EVQLLESGGGLVQPGGSLRLSCAASGFTFSSYMSWVRQAPGKGLEWVSSIGSGYYSTYYADSVKGRFTISRDNSKNTLYLQMNSLRAEDTAVYYCARDYYGGFDYWGQGTLVTVSSGGGGSGGGGSGGGGSQSVLTQPPSASGTPGQRVTISCSGSSSNIGSNYVYWYQQLPGTAPKLLIYRNNQRPSGVPDRFSGSKSGTSASLAISGLRSEDEADYYCAAYDSYSYVFGGGTKLTVLG | 0.051
T1-7 anti-CD30 scFv-Fc (Fc fusion, scFv-Fc-conjugated form (Zb-Fc); also called Zb-Fc form; not shown: Fc of the scFv-Fc (Zb-Fc) form and any junction to it) scFv: EVQLLESGGGLVQPGGSLRLSCAASGFTFSGYGMSWVRQAPGKGLEWVSYISSGSYYTYYADSVKGRFTISRDNSKNTLYLQMNSLRAEDTAVYYCARYRGDNDYYGYFDYWGQGTLVTVSSGGGGSGGGGSGGGGSQSVLTQPPSASGTPGQRVTISCSCSSSNIGNNAVSWYQQLPGTAPKLLIYRNNQRPSGVPDRFSGSKSGTSASLAISGLRSEDEADYYCAADYGSDYVFGGGTKLTVLG | 0.048
